Test results from US20180216094A1 (University of California, published 2018).

Biological target: T1, FXIS557A catalytic domain (catalytically inactive catalytic domain of human FXI, Ile370 to Ala606 of SEQ ID … (human))
T1 construct: The range 20-264 is worked out from 19 signal residues + 237 domain residues + 8 His; also called FXIS557A catalytic domain decoy; decoy
Experiment: SPR (Biacore T200), biotinylated FXIS557A catalytic domain captured on CAP chip, DEF Fab injected, 37 C, 1:1 Langmuir fit
Protocol: Binding affinity was measured using a Biacore T200 Instrument (GE Healthcare). Recombinant FXIS557A catalytic domain was biotin labeled via primary amines and captured on a Biacore CAP chip (GE Healthcare). Experiments were performed at 37° C. using a 30 μ/min flow rate in 10 mM HEPES (pH 7.4), 150 mM NaCI and 0.005% v/v Surfactant P20 (HBSp) buffer (GE Healthcare). After each DEF Fab injection, the chip surface was regenerated with a solution of 6 M guanidine-HCl and 0.25 M NaOH, coated with the CAP reagent and new FXIS557A was captured. All data was analyzed using the Biacore T200 Evaluation software and background and buffer subtracted data fit to a 1:1 Langmuir binding model. Results were reported as the mean of two experiments.

B1: DEF Fab (Fab, V domains shown)
VH: EVQLVQSGAEVKKPGASVKVSCKASGYTFTGYYMHWVRQAPGQGLEWMGWIDPDEGDTNYAQKFQGRVTMTRDTSISTAYMELSRLRSDDTAVYYCARLASGFRDYWGQGTLVTVSS
VL: DIVMTKSPSSLSASVGDRVTITCRASQGIRNDLGWYQQKPGKAPKRLIYAASSLQSGVPSRFSGSGSGTEFTLTISSLQPEDFATYYCLQHDIYASTFGPGTKVDIKR
notes: Fab form of antibody DEF
  koff: 0.000445 s⁻¹
  kon: 2.95e+06 M⁻¹ s⁻¹
